What was measured:
[1] = tested on: NC/Nga mice modeling atopic dermatitis; test: Haptene (DNFB) treatment of mice modeling atopic dermatitis, observation of skin inflammation; assay type: in vivo, mouse; conditions: haptene (0.1% DNFB, once a week, 4 weeks) applied; lactoferrin 1 μg/ml in drinking water; compared to haptene-treated mice not given lactoferrin
Experimental: (§1) Six-week-old male mice (NC/Nga mice) modeling atopic dermatitis were obtained (NC/Nga slc, Sankyo Labo Service Corporation) and raised under conventional conditions. […] In view of the above, a 0.1% DNFB solution (haptene) was applied to the skin of the mice on both ears as well as the right and left sides of the back once a week for a total of 4 weeks.
(§2) To relieve inflammation caused by atopic dermatitis, lactoferrin was dissolved in drinking water at 1 μg/ml and administered.
(§3) Three mice were tested under each of the following experimental conditions: (1) haptene (−)/lactoferrin (−), (2) haptene (−)/lactoferrin (+), (3) haptene (+)/lactoferrin (−), and (4) haptene (+)/lactoferrin (+).
When raised with haptene treatment in a conventional environment, the mice (NC/Nga mice) modeling atopic dermatitis used in this study developed a macroscopically noticeable dermatitis very similar to atopic dermatitis after 4 weeks of haptene treatment. In this study, the mice were fed with drinking water mixed with lactoferrin, a substance shown to be effective on atopic dermatitis (a protein with a molecular weight of 80,000 found in saliva and blood and bonding with Fe ions).

[2] = tested on: skin tissues of NC/Nga mice modeling atopic dermatitis; test: Western blotting of protein expression in skin tissues of mice modeling atopic dermatitis; assay type: in vivo, mouse
Experimental: as §1, §2, §3
Skin tissues were cut out from mice treated with haptene/lactoferrin for 4 weeks and the tissue strips were cut into small pieces with a knife, after which the tissue pieces were transferred into a centrifugal tube whose tare weight had been measured beforehand, to measure the tissue weight. Different buffers were added by different amounts, such as tissue weight×0.85 mg Urea, tissue weight×0.1 μl 1.5% SDS, tissue weight×0.1 μl 8.5% Triton X-100, and tissue weight×0.05 μl 2-ME, and homogenized using a HG30 homogenizer (Hitachi, Ltd.). […] Protein content was quantified using the dot blotting method.
SDS-PAGE was performed with a Laemmli Tris-Glycin system using a Western blotting sample. […] If HRP labeled anti-mouse IgG (Amersham Bioscience, Inc.) (1:1000 dilution), HRP labeled anti-rabbit IgG (Amersham Bioscience, Inc.) (1:1000 dilution), HRP labeled anti-rat IgG (Amersham Bioscience, Inc.) (1:1000 dilution) or HRP labeled anti-goat IgG (Santa Cruz Biotechnology, Inc.) (1:1000 dilution) was used as the secondary antibody, an enhanced chemiluminescence (ECL) kit (Amersham Bioscience, Inc.) was used to implement detection by means of fluorescence color development. […]

B1: lactoferrin (protein, UniProt P02788 20-710, looked up)
Lactotransferrin: GRRRSVQWCAVSQPEATKCFQWQRNMRKVRGPPVSCIKRDSPIQCIQAIAENRADAVTLDGGFIYEAGLAPYKLRPVAAEVYGTERQPRTHYYAVAVVKKGGSFQLNELQGLKSCHTGLRRTAGWNVPIGTLRPFLNWTGPPEPIEAAVARFFSASCVPGADKGQFPNLCRLCAGTGENKCAFSSQEPYFSYSGAFKCLRDGAGDVAFIRESTVFEDLSDEAERDEYELLCPDNTRKPVDKFKDCHLARVPSHAVVARSVNGKEDAIWNLLRQAQEKFGKDKSPKFQLFGSPSGQKDLLFKDSAIGFSRVPPRIDSGLYLGSGYFTAIQNLRKSEEEVAARRARVVWCAVGEQELRKCNQWSGLSEGSVTCSSASTTEDCIALVLKGEADAMSLDGGYVYTAGKCGLVPVLAENYKSQQSSDPDPNCVDRPVEGYLAVAVVRRSDTSLTWNSVKGKKSCHTAVDRTAGWNIPMGLLFNQTGSCKFDEYFSQSCAPGSDPRSNLCALCIGDEQGENKCVPNSNERYYGYTGAFRCLAENAGDVAFVKDVTVLQNTDGNNNEAWAKDLKLADFALLCLDGKRKPVTEARSCHLAMAPNHAVVSRMDKVERLKQVLLHQQAKFGRNGSDCPDKFCLFQSETKNLLFNDNTECLARLHGKTTYEKYLGPQYVAGITNLKKCSTSPLLEACEFLRK
notes: a protein with a molecular weight of 80,000 found in saliva and blood and bonding with Fe ions
- inflammation on the back (skin condition, FIG. 1) [1]: less inflammation
- amount of expression of Annexin II, Enolase 1 and PARK7 (all other than FABP-4) (FIG. 5) ([2]; haptene-treated mice also given lactoferrin, to a level close to non-haptene-treated control mice): recovered
- amounts of expression of Galectin-1, -4, -7 and -8 (FIG. 3) ([2]; haptene-treated mice also given lactoferrin, to levels close to non-haptene-treated control mice): recovered
- Moesin, Ezrin and Radixin severed types of low molecular weight (50-kDa), increased by haptene treatment (FIG. 4) ([2]; haptene-treated mice, lactoferrin administration): did not decrease

Source: patent publication US20090263792A1, “ATOPIC DERMATITIS MARKER AND TECHNIQUE OF USING THE SAME” (FANCL CORPORATION, priority 2005, published 2009)
